Measured values reported in US20220298217A1 (FLAGSHIP PIONEERING INNOVATIONS VI, published 2022).

T1: PTHR1 on CHO-K1/Ga15/PTHR1 cells (UniProt Q03431 27-593, limits assumed)
T1 sequence (looked up): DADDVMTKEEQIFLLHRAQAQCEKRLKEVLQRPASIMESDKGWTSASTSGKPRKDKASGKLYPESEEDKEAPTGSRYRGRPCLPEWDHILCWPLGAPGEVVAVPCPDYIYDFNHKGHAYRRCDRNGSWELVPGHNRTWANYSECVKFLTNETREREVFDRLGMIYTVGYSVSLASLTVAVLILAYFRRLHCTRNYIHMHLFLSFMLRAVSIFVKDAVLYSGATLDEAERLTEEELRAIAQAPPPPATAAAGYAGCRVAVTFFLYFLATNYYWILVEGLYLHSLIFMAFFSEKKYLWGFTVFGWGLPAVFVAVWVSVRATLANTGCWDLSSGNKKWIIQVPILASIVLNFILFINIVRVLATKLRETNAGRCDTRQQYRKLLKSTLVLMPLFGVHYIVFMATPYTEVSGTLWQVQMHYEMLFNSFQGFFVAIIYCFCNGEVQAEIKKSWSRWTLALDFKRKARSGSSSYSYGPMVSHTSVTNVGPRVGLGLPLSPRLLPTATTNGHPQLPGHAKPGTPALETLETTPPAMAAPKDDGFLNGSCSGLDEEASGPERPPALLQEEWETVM

T2: Flag-PTHR1-YFP (UniProt Q03431 27-593)
T2 sequence (looked up): T1 sequence (looked up)


Each molecule was assayed against T1, PTHR1 on CHO-K1/Ga15/PTHR1 cells (assay: cell-based or functional assay).
GVAMLQIMHDLAKIKQELELKDSMKKILEDVL [R2-50] was tested, and the “cAMP accumulation (HTRF): -log10EC50” value was -6.24 -log10EC50 (as headed) and the “cAMP accumulation (HTRF): Emax” value was 99.8%.
AVAEIQLMHQRAKWEIQEIGIKITLELLKEYI [R2-37] was tested, and the “cAMP accumulation (HTRF): -log10EC50” value was -9.09 -log10EC50 (as headed) and the “cAMP accumulation (HTRF): Emax” value was 96.4%.
AVAEIQLMHQRAKWSLREELEKLLKELLKEYI [R2-44] was tested, and the “cAMP accumulation (HTRF): -log10EC50” value was -10.4 -log10EC50 (as headed) and the “cAMP accumulation (HTRF): Emax” value was 106%.
In the case of AVAEIQLMHQRAKWRAEYELREMLLRLLEEIF [R1-96], the “cAMP accumulation (HTRF): -log10EC50” value is reported as -8.01 -log10EC50 (as headed) and the “cAMP accumulation (HTRF): Emax” value is reported as 99.7%.
For AVAEIQLMHQRAKWELQEIGIAITLRLLARYI [R2-43], the “cAMP accumulation (HTRF): -log10EC50” value was -10.5 -log10EC50 (as headed) and the “cAMP accumulation (HTRF): Emax” value was 309%.
With AVAEIQLMHQRAKWDLLIELVKLLHELLKEYI [R2-40] the “cAMP accumulation (HTRF): -log10EC50” value was -11.2 -log10EC50 (as headed) and the “cAMP accumulation (HTRF): Emax” value was 95.1%.
In the case of GVAELQLMHDLAKIKLELELKVKLLEILKDVY [R2-49], the “cAMP accumulation (HTRF): -log10EC50” value is reported as -5.79 -log10EC50 (as headed) and the “cAMP accumulation (HTRF): Emax” value is reported as 99.9%.
For AVAEIQLMHQRAKWDVLIELAKLLAELLRRYH [R2-47], the “cAMP accumulation (HTRF): -log10EC50” value was -9.23 -log10EC50 (as headed) and the “cAMP accumulation (HTRF): Emax” value was 102%.
AVAEIQLMHQRAKWKILEELLKILIDLLKQYI [R2-48] was tested, and the “cAMP accumulation (HTRF): -log10EC50” value was -7.19 -log10EC50 (as headed) and the “cAMP accumulation (HTRF): Emax” value was 98.8%.
For AVAEIQLMHQRAKWELEYELFEMFLKLLEEIF [I1 (R1-100)], the “cAMP accumulation (HTRF): -log10EC50” value was -7.28 -log10EC50 (as headed) and the “cAMP accumulation (HTRF): Emax” value was 99.9%.
With AVAEIQLMHQRAKWAIQEIGIKITRELLERYL [R2-42] the “cAMP accumulation (HTRF): -log10EC50” value was -6.54 -log10EC50 (as headed) and the “cAMP accumulation (HTRF): Emax” value was 97.6%.
For AVAEIQLMHQRAKWELEFELFREFLKLLVDFF [I3 (R1-97)], the “cAMP accumulation (HTRF): -log10EC50” value was -7.23 -log10EC50 (as headed) and the “cAMP accumulation (HTRF): Emax” value was 99.3%.
For AVAEIQLMHQRAKWGVELQLKVDLRRILEDVY [R2-35], the “cAMP accumulation (HTRF): -log10EC50” value was -8.01 -log10EC50 (as headed) and the “cAMP accumulation (HTRF): Emax” value was 97%.
GIAVITLMLLRAYLELLEELVKILHELLRRYH [R2-52] was tested, and the “cAMP accumulation (HTRF): -log10EC50” value was -5.59 -log10EC50 (as headed) and the “cAMP accumulation (HTRF): Emax” value was 97.4%.
For AVAEIQLMHQRAKWRLEIELLKKLKEILKDVY [R2-34], the “cAMP accumulation (HTRF): -log10EC50” value was -6.98 -log10EC50 (as headed) and the “cAMP accumulation (HTRF): Emax” value was 96.1%.
AVAEIQLMHQRAKWGLEIELLKLLLSLLKEYI [R2-45] was tested, and the “cAMP accumulation (HTRF): -log10EC50” value was -11.1 -log10EC50 (as headed) and the “cAMP accumulation (HTRF): Emax” value was 729%.
With VDFEIQLMQQRAQWIADYRIREFLDKLIAEIF [R1-94] the “cAMP accumulation (HTRF): -log10EC50” value was -10.1 -log10EC50 (as headed) and the “cAMP accumulation (HTRF): Emax” value was 90.8%.
GIAVITLMVLRALLELQEIGRKITLELLKEYI [R2-51] was tested, and the “cAMP accumulation (HTRF): -log10EC50” value was -9.98 -log10EC50 (as headed) and the “cAMP accumulation (HTRF): Emax” value was 3.99%.
For AVAEIQLMHQRAKWKLELELKAFLDQILKDVL [R2-36], the “cAMP accumulation (HTRF): -log10EC50” value was -8.32 -log10EC50 (as headed) and the “cAMP accumulation (HTRF): Emax” value was 99%.

What follows are molecules tested against T2, Flag-PTHR1-YFP (assay: cell-based or functional assay).
With GVAMLQIMHDLAKIKQELELKDSMKKILEDVL [R2-50] the “arrestin 2 recruitment (BRET): -log10EC50” value was -10.5 -log10EC50 (as headed) and the “arrestin 2 recruitment (BRET): Emax” value was 6.45.
For AVAEIQLMHQRAKWEIQEIGIKITLELLKEYI [R2-37], the “arrestin 2 recruitment (BRET): -log10EC50” value was -5.86 -log10EC50 (as headed) and the “arrestin 2 recruitment (BRET): Emax” value was 17.
AVAEIQLMHQRAKWSLREELEKLLKELLKEYI [R2-44] was tested, and the “arrestin 2 recruitment (BRET): -log10EC50” value was -8.46 -log10EC50 (as headed) and the “arrestin 2 recruitment (BRET): Emax” value was 7.63.
With AVAEIQLMHQRAKWELQEIGIAITLRLLARYI [R2-43] the “arrestin 2 recruitment (BRET): -log10EC50” value was -8.03 -log10EC50 (as headed) and the “arrestin 2 recruitment (BRET): Emax” value was 7.45.
With AVAEIQLMHQRAKWDLLIELVKLLHELLKEYI [R2-40] the “arrestin 2 recruitment (BRET): -log10EC50” value was -5.85 -log10EC50 (as headed) and the “arrestin 2 recruitment (BRET): Emax” value was 13.9.
In the case of AVAEIQLMHQRAKWDVLIELAKLLAELLRRYH [R2-47], the “arrestin 2 recruitment (BRET): -log10EC50” value is reported as -5.77 -log10EC50 (as headed) and the “arrestin 2 recruitment (BRET): Emax” value is reported as 15.2.
With AVAEIQLMHQRAKWKILEELLKILIDLLKQYI [R2-48] the “arrestin 2 recruitment (BRET): -log10EC50” value was -15.2 -log10EC50 (as headed) and the “arrestin 2 recruitment (BRET): Emax” value was 6.42.
AVAEIQLMHQRAKWELQEIGIKITLDLLEAYL [R2-39] was tested, and the “arrestin 2 recruitment (BRET): -log10EC50” value was -7.7 -log10EC50 (as headed) and the “arrestin 2 recruitment (BRET): Emax” value was 6.88.
With AVAEIQLMHQRAKWAIQEIGIKITRELLERYL [R2-42] the “arrestin 2 recruitment (BRET): -log10EC50” value was -8.37 -log10EC50 (as headed) and the “arrestin 2 recruitment (BRET): Emax” value was 7.53.
With AVAEIQLMHQRAKWGVELQLKVDLRRILEDVY [R2-35] the “arrestin 2 recruitment (BRET): -log10EC50” value was -3.46 -log10EC50 (as headed) and the “arrestin 2 recruitment (BRET): Emax” value was 35.8.
AVAEIQLMHQRAKWSILEELLKILTALLDEYI [R2-46] was tested, and the “arrestin 2 recruitment (BRET): -log10EC50” value was -6.73 -log10EC50 (as headed) and the “arrestin 2 recruitment (BRET): Emax” value was 8.34.
In the case of AVAEIQLMHQRAKWRLEIELLKKLKEILKDVY [R2-34], the “arrestin 2 recruitment (BRET): -log10EC50” value is reported as -8.41 -log10EC50 (as headed) and the “arrestin 2 recruitment (BRET): Emax” value is reported as 7.61.
In the case of AVAEIQLMHQRAKWGLEIELLKLLLSLLKEYI [R2-45], the “arrestin 2 recruitment (BRET): -log10EC50” value is reported as -5.76 -log10EC50 (as headed) and the “arrestin 2 recruitment (BRET): Emax” value is reported as 16.1.
AVAEIQLMHQRAKWKLELELKAFLDQILKDVL [R2-36] was tested, and the “arrestin 2 recruitment (BRET): -log10EC50” value was -8.7 -log10EC50 (as headed) and the “arrestin 2 recruitment (BRET): Emax” value was 7.53.

Each molecule was assayed against Flag-PTHR1-YFP (parathyroid hormone receptor 1) expressed in transfected HEK293T cells (human) (UniProt Q03431) (assay: cell-based or functional assay).
In the case of PTH 7-36 antago (peptide), the arrestin 1, plate 25: -log10EC50 is reported as -6.98 -log10EC50, the arrestin 1, plate 25: Emax is reported as 7.68 and the arrestin 2, plate 26: -log10EC50 is reported as -7.33 -log10EC50. It also gave an arrestin 2, plate 26: Emax of 8.04.
